{"source": "paper PMC4866825", "about": "“The GIRK1 subunit potentiates G protein activation of cardiac GIRK1/4 hetero-tetramers” (eLife, 2016)", "molecules": {"B1": {"name": "GIRK1 subunit fused to GFP (GIRK1-His10-pEG BacMam construct) (natural protein, human, UniProt P48549 1-501, looked up)", "chain": "MSALRRKFGDDYQVVTTSSSGSGLQPQGPGQDPQQQLVPKKKRQRFVDKNGRCNVQHGNLGSETSRYLSDLFTTLVDLKWRWNLFIFILTYTVAWLFMASMWWVIAYTRGDLNKAHVGNYTPCVANVYNFPSAFLFFIETEATIGYGYRYITDKCPEGIILFLFQSILGSIVDAFLIGCMFIKMSQPKKRAETLMFSEHAVISMRDGKLTLMFRVGNLRNSHMVSAQIRCKLLKSRQTPEGEFLPLDQLELDVGFSTGADQLFLVSPLTICHVIDAKSPFYDLSQRSMQTEQFEIVVILEGIVETTGMTCQARTSYTEDEVLWGHRFFPVISLEEGFFKVDYSQFHATFEVPTPPYSVKEQEEMLLMSSPLIAPAITNSKERHNSVECLDGLDDITTKLPSKLQKITGREDFPKKLLRMSSTTSEKAYSLGDLPMKLQRISSVPGNSEEKLVSKTTKMLSDPMSQSVADLPPKLQKMAGGAARMEGNLPAKLRKMNSDRFT", "notes": "G protein gated inward rectifier K+ channel subunit GIRK1, human, full length; A PreScission protease cleavage site stands between GIRK1 and eGFP-His10; not cut for FSEC; also called GIRK1 homo-tetramers; source: HEK293T, transiently transfected, in solubilized cell lysate (4% DM); not shown: eGFP, C-terminal, kept; His10, C-terminal, kept"}, "B2": {"name": "GIRK4 subunit fused to GFP (GIRK4-1D4-pEG BacMam construct) (natural protein, human, UniProt P48544 1-419, looked up)", "chain": "MAGDSRNAMNQDMEIGVTPWDPKKIPKQARDYVPIATDRTRLLAEGKKPRQRYMEKSGKCNVHHGNVQETYRYLSDLFTTLVDLKWRFNLLVFTMVYTVTWLFFGFIWWLIAYIRGDLDHVGDQEWIPCVENLSGFVSAFLFSIETETTIGYGFRVITEKCPEGIILLLVQAILGSIVNAFMVGCMFVKISQPKKRAETLMFSNNAVISMRDEKLCLMFRVGDLRNSHIVEASIRAKLIKSRQTKEGEFIPLNQTDINVGFDTGDDRLFLVSPLIISHEINQKSPFWEMSQAQLHQEEFEVVVILEGMVEATGMTCQARSSYMDTEVLWGHRFTPVLTLEKGFYEVDYNTFHDTYETNTPSCCAKELAEMKREGRLLQYLPSPPLLGGCAEAGLDAEAEQNEEDEPKGLGGSREARGSV", "notes": "G protein gated inward rectifier K+ channel subunit GIRK4, human, full length; A PreScission protease cleavage site stands between GIRK4 and eGFP-1D4; not cut for FSEC; also called GIRK4 homo-tetramers; source: HEK293T, transiently transfected, in solubilized cell lysate (4% DM); not shown: eGFP, C-terminal, kept; 1D4 peptide, C-terminal, kept"}, "B3": {"name": "GIRK4-1D4 (human full-length GIRK4 with C-terminal PreScission site, eGFP and 1D4 peptide tag) (natural protein, UniProt P48544 1-419, looked up)", "chain": "MAGDSRNAMNQDMEIGVTPWDPKKIPKQARDYVPIATDRTRLLAEGKKPRQRYMEKSGKCNVHHGNVQETYRYLSDLFTTLVDLKWRFNLLVFTMVYTVTWLFFGFIWWLIAYIRGDLDHVGDQEWIPCVENLSGFVSAFLFSIETETTIGYGFRVITEKCPEGIILLLVQAILGSIVNAFMVGCMFVKISQPKKRAETLMFSNNAVISMRDEKLCLMFRVGDLRNSHIVEASIRAKLIKSRQTKEGEFIPLNQTDINVGFDTGDDRLFLVSPLIISHEINQKSPFWEMSQAQLHQEEFEVVVILEGMVEATGMTCQARSSYMDTEVLWGHRFTPVLTLEKGFYEVDYNTFHDTYETNTPSCCAKELAEMKREGRLLQYLPSPPLLGGCAEAGLDAEAEQNEEDEPKGLGGSREARGSV", "notes": "G protein gated inward rectifier K+ channel subunit GIRK4, human, full length; also called 1D4-tagged GIRK4; GIRK4 subunit; source: HEK293S GnTI- cells, BacMam transduced together with GIRK1-His (1:1), solubilized in DM; not shown: eGFP, C-terminal, kept; 1D4 peptide, C-terminal, kept"}}, "key": {"[1]": {"target": "GIRK4 homo-tetramers, purified and reconstituted into proteoliposomes and planar lipid bilayers (human) (UniProt P48544)"}, "[2]": {"target": "GIRK1(N217D)/4 hetero-tetramers, purified and reconstituted into proteoliposomes and planar lipid bilayers (human) (UniProt P48549)", "settings": "scale: not given"}, "[3]": {"target": "GIRK4 homo-tetramers, purified and reconstituted into proteoliposomes and planar lipid bilayers (human) (UniProt P48544)", "remark": "listed apart in the source"}, "[4]": {"target": "GIRK1/4 hetero-tetramers, purified and reconstituted into proteoliposomes and planar lipid bilayers (human) (UniProt P48549)"}, "[5]": {"target": "the molecule itself", "test": "SEC; fluorescent size-exclusion chromatography (FSEC) of solubilized HEK293T cell lysate, Superose 6 10/300 GL; 50 mM HEPES-KOH pH 7.35, 150 mM KCl, 4% DM for solubilization; GFP fluorescence followed"}, "[6]": {"target": "T1, GIRK1-His (human full-length GIRK1 with C-terminal PreScission site, eGFP and deca-histidine tag) (human, UniProt P48549 1-501)", "T1 construct": "G protein gated inward rectifier K+ channel subunit GIRK1, human, full length; also called His-tagged GIRK1; GIRK1 subunit; source: HEK293S GnTI- cells, BacMam transduced together with GIRK4-1D4 (1:1), solubilized in DM; not shown: eGFP, C-terminal, kept; His10, C-terminal, kept", "T1 sequence (looked up)": "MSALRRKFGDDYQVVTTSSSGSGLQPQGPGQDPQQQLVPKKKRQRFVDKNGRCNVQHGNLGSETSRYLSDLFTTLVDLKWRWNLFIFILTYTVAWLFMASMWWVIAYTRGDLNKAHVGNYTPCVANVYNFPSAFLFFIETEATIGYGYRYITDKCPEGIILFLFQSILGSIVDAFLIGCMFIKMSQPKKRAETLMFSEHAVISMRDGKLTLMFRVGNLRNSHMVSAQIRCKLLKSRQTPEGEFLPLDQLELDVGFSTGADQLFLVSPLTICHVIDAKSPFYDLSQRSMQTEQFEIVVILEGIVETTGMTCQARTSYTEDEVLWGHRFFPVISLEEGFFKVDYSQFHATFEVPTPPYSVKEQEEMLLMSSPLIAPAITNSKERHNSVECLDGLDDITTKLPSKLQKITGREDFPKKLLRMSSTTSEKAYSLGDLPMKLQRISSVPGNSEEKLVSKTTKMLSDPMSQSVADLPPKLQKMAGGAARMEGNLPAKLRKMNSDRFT", "test": "SEC; purified GIRK1/4 after PreScission cleavage of eGFP and tags, Superose 6 10/300 GL in 20 mM Tris-HCl pH 7.5, 150 mM KCl, 0.2% DM, 20 mM DTT, 1 mM EDTA; fractions of the peak run on 12% SDS-PAGE, band intensities compared", "settings": "both partners purified"}}}
{"molecule": "soluble Gβγ with a deca-histidine-tag instead of its physiological lipid anchor (sGβγ-His10) (from UniProt P62873 1-340; P59768 1-71) (complex)", "values": [{"measurement": "normalized GIRK4 current in planar lipid bilayers at 0.001 Ni-NTA mole fraction, 0 to 32 mM Na+ (normalized current)", "setting": "[1]", "result": 0.34}, {"measurement": "Kdb from a fit of the equilibrium gating model (b and θ4,4 fixed) to normalized planar lipid bilayer currents against Ni-NTA-lipid mole fraction at 0, 8 and 32 mM Na+", "setting": "[2]", "result": 0.0024}, {"measurement": "b, cooperativity factor for Gβγ binding, from the fit of the equilibrium gating model to normalized planar lipid bilayer currents", "setting": "[3]", "result": 0.6}, {"measurement": "Kdb from a fit of the 25-state equilibrium gating model to normalized planar lipid bilayer currents against Ni-NTA-lipid mole fraction (membrane sGβγ-His10 density) at 0, 8 and 32 mM Na+", "setting": "[3]; scale: not given", "result": 0.004}, {"measurement": "b, cooperativity factor for Gβγ binding, from the fit of the equilibrium gating model to normalized planar lipid bilayer currents", "setting": "[4]", "result": 0.6}, {"measurement": "Kdb from a fit of the equilibrium gating model (two Na+ sites permanently occupied) to normalized planar lipid bilayer currents against Ni-NTA-lipid mole fraction at 0, 8 and 32 mM Na+", "setting": "[4]; scale: not given", "result": 0.004}]}
{"molecule": "B1", "values": [{"measurement": "stoichiometry N", "setting": "[5]", "result": 4, "unit": "subunits"}]}
{"molecule": "B2", "values": [{"measurement": "stoichiometry N", "setting": "[5]", "result": 4, "unit": "subunits"}]}
{"molecule": "B3", "values": [{"measurement": "stoichiometry N", "setting": "[6]", "result": "1 GIRK4 per GIRK1 (2:2 in the tetramer)"}]}
